Test results published in the RNAGym collection of RNA variant scans (doi:10.1093/molbev/msab373).

B1: Azoarcus group I ribozyme (parent)
chain: GUGCCUUGCGCCGGGAAACCACGCAAGGGAUGGUGUCAAAUUCGGCGAAACCUAAGCGCCCGCCCGGGCGUAUGGCAACGCCGAGCCAAGCUUCGGCGCCUGCGCCGAUGAAGGUGUAGAGACUAGACGGCACCCACCUAAGGCAAACGCUAUGGUGAAGGCAUAGUCCAGGGAGUGGCGAAAGUCACACAAACCGG

Variants of: B1
Test: reverse-splicing fitness (ratio to wild type); higher = more active; in vitro selection; Mg2+ level not given
Procedure, shortened: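 An in vitro group I ribozyme library with randomized positions was T7-transcribed and gel-purified. In triplicate, 10 pmol RNA in EPPS pH 7.5 was reacted with 50 pmoles of a 30-nt RNA substrate for 1 h at 37 °C across several added MgCl2 levels (1–48 mM), then stopped with EDTA. Products were reverse transcribed from a substrate-complementary primer, PCR-amplified and sequenced (HiSeq 4000). Fitness is a variant's read proportion after selection over that before, normalised to wild type.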
C82G A120C A145G C150U C169A U176G showed a reverse-splicing fitness of 0.0065.
Work on C82G A120C A145G C150U C169A U176A yielded a reverse-splicing fitness of 0.0194.
Work on C82G A120G A145C C150U U176G yielded a reverse-splicing fitness of 0.00485.
With C82G A120G A145C C150U U176A the reverse-splicing fitness was 0.00928.
For C82G A120G A145C C150U U176C, the reverse-splicing fitness was 0.00922.
With C82G A120C A145U C169G the reverse-splicing fitness was 0.0068.
Work on C82G A120C A145U C169U yielded a reverse-splicing fitness of 0.0247.
In the case of C82G A120C A145U C169A, the reverse-splicing fitness is reported as 0.00673.
Variant C82G A120C A145C C169U U176C has a reverse-splicing fitness of 0.0142.
Work on C82G A120C A145C C169U U176A yielded a reverse-splicing fitness of 0.0152.
Variant C82G A120C A145C C169U U176G has a reverse-splicing fitness of 0.00352.
C82G A120C A145U C150A U176C showed a reverse-splicing fitness of 0.0216.
Work on C82G A120C A145U C150A U176G yielded a reverse-splicing fitness of 0.00735.
C82G A120C A145U C150A U176A gave a reverse-splicing fitness of 0.0188.
C82G A120C A145C C150A C169G U176G showed a reverse-splicing fitness of 0.0056.
For C82G A120C A145C C150A C169G U176C, the reverse-splicing fitness was 0.0164.
With C82G A120C A145C C150A C169G U176A the reverse-splicing fitness was 0.0302.
Variant C82G A120C A145G C150G C169U U176C has a reverse-splicing fitness of 0.0134.
In the case of C82G A120C A145G C150G C169U U176G, the reverse-splicing fitness is reported as 0.00789.
Variant C82G A120C A145G C150G C169U U176A has a reverse-splicing fitness of 0.0128.
For C82G A120C A145G C169A U176G, the reverse-splicing fitness was 0.00477.
For C82G A120C A145G C169A U176C, the reverse-splicing fitness was 0.0247.
For C82G A120C A145G C169A U176A, the reverse-splicing fitness was 0.0209.
For C82G A111U C169U U176G, the reverse-splicing fitness was 0.00639.
For C82G A111U C169U U176A, the reverse-splicing fitness was 0.0177.
For C82G A111U C169U U176C, the reverse-splicing fitness was 0.0158.
With C82G A120C A145U C150G U176G the reverse-splicing fitness was 0.00444.
Variant C82G A120C A145U C150G U176A has a reverse-splicing fitness of 0.00942.
In the case of C82G A120C A145U C150G U176C, the reverse-splicing fitness is reported as 0.0164.
Work on C82G A120G A145G C150A C169A U176A yielded a reverse-splicing fitness of 0.0199.
C82G A120C C150G C169A U176A showed a reverse-splicing fitness of 0.01.
In the case of C82G A120C C150G C169A U176C, the reverse-splicing fitness is reported as 0.0106.
Work on C82G A120C C150G C169A U176G yielded a reverse-splicing fitness of 0.0082.
C82G A120C A145C C150U U176C gave a reverse-splicing fitness of 0.0273.
With C82G A120C A145C C150U U176A the reverse-splicing fitness was 0.0221.
C82G A120C A145C C150U U176G showed a reverse-splicing fitness of 0.00925.
For C82G A120C A145G, the reverse-splicing fitness was 0.21.
C82G A120C A145U gave a reverse-splicing fitness of 0.21.
C82G A120C A145C showed a reverse-splicing fitness of 0.201.
For C82G A120G A145C C150G C169A, the reverse-splicing fitness was 0.0102.
Work on C82G A120G A145C C150G C169G yielded a reverse-splicing fitness of 0.0108.
Variant C82G A120G A145C C150G C169U has a reverse-splicing fitness of 0.00976.
For C82G A120C A145G C150G U176C, the reverse-splicing fitness was 0.0168.
For C82G A120C A145G C150G U176A, the reverse-splicing fitness was 0.0102.
C82G A120C A145G C150G U176G showed a reverse-splicing fitness of 0.00687.
In the case of C82G A120G A145C C150U C169A U176G, the reverse-splicing fitness is reported as 0.00471.
In the case of C82G A120G A145C C150U C169A U176C, the reverse-splicing fitness is reported as 0.00669.
Work on C82G A120G A145C C150U C169A U176A yielded a reverse-splicing fitness of 0.0126.
For C82G A120C A145C C169G, the reverse-splicing fitness was 0.00864.
C82G A120C A145C C169U gave a reverse-splicing fitness of 0.0218.
C82G A120C A145C C169A showed a reverse-splicing fitness of 0.00704.
Variant C82G A120C A145C C169G U176G has a reverse-splicing fitness of 0.00428.
With C82G A120C A145C C169G U176C the reverse-splicing fitness was 0.0161.
Variant C82G A120C A145C C169G U176A has a reverse-splicing fitness of 0.0262.
C82G A120G A145C C169U U176G gave a reverse-splicing fitness of 0.00392.
Work on C82G A120G A145C C169U U176C yielded a reverse-splicing fitness of 0.0185.
With C82G A120G A145C C169U U176A the reverse-splicing fitness was 0.0207.
Variant C82G A120C A145U C150U C169G U176A has a reverse-splicing fitness of 0.0139.
Work on C82G A120C A145U C150U C169G U176C yielded a reverse-splicing fitness of 0.015.
C82G A120C A145U C150U C169G U176G gave a reverse-splicing fitness of 0.0044.
C82G A120C C169U showed a reverse-splicing fitness of 0.0232.
Variant C82G A120C C169A has a reverse-splicing fitness of 0.00902.
C82G A120C C169G gave a reverse-splicing fitness of 0.00817.
In the case of C82G A120C A145G C150U C169U U176G, the reverse-splicing fitness is reported as 0.00474.
Variant C82G A120C A145G C150U C169U U176C has a reverse-splicing fitness of 0.0155.
With C82G A120C A145G C150U C169U U176A the reverse-splicing fitness was 0.0184.
In the case of C82G A120C A145C C150G U176G, the reverse-splicing fitness is reported as 0.00422.
With C82G A120C A145C C150G U176C the reverse-splicing fitness was 0.0144.
Variant C82G A120C A145C C150G U176A has a reverse-splicing fitness of 0.00907.
In the case of C82G A120C C150A, the reverse-splicing fitness is reported as 0.0228.
In the case of C82G A120C C150U, the reverse-splicing fitness is reported as 0.108.
Work on C82G A120C C150G yielded a reverse-splicing fitness of 0.0159.
C82G A120G A145C C150U C169U U176A gave a reverse-splicing fitness of 0.0184.
In the case of C82G A120G A145C C150U C169U U176C, the reverse-splicing fitness is reported as 0.0138.
For C82G A120G A145C C150U C169U U176G, the reverse-splicing fitness was 0.00404.
For C82G A120G A145C C150A, the reverse-splicing fitness was 0.00852.
With C82G A120G A145C C150U the reverse-splicing fitness was 0.0111.
In the case of C82G A120G A145C C150G, the reverse-splicing fitness is reported as 0.00798.
Variant C82G A120G A145C C150A C169U has a reverse-splicing fitness of 0.00751.
C82G A120G A145C C150A C169A showed a reverse-splicing fitness of 0.00825.
C82G A120G A145C C150A C169G gave a reverse-splicing fitness of 0.00875.
Variant C82G A120C A145G U176C has a reverse-splicing fitness of 0.103.
C82G A120C A145G U176G showed a reverse-splicing fitness of 0.0158.
